{
  "source": "patent US20220259593A1",
  "about": "“CONTROL OF MAMMALIAN GENE DOSAGE USING CRISPR” (The Regents of the University of California, priority 2019, published 2022)",
  "molecules": {"B1": {"name": "cr685 (nucleic acid)", "guide": "GTTTAAGAGCTAAGCTGGAAACAGCATAGCAAGTTTAAATAAGGCTAGTCCGTTATCAGCTTGAAAAAGTGGCACCGAGTCGGTGCT", "modifications": "listed as DNA, chemistry not fully specified"}, "B2": {"name": "cr892 (nucleic acid)", "guide": "B1 guide with G59A, T61G, A68C, A74G, C75A, G83T, T84C", "modifications": "listed as DNA, chemistry not fully specified"}, "B3": {"name": "cr623 (nucleic acid)", "guide": "B1 guide with G59C, C60T, T61G, A68C, G69A, T70G", "modifications": "listed as DNA, chemistry not fully specified"}, "B4": {"name": "cr125 (nucleic acid)", "guide": "B1 guide with G33T, G59A, A65T", "modifications": "listed as DNA, chemistry not fully specified"}, "B5": {"name": "cr209 (nucleic acid)", "guide": "B1 guide with A41C, G59A", "modifications": "listed as DNA, chemistry not fully specified"}, "B6": {"name": "cr055 (nucleic acid)", "guide": "B1 guide with T2G, A8C, G59A", "modifications": "listed as DNA, chemistry not fully specified"}, "B7": {"name": "cr108 (nucleic acid)", "guide": "B1 guide with G43A, C51T, G59A, A65G", "modifications": "listed as DNA, chemistry not fully specified"}, "B8": {"name": "cr322 (nucleic acid)", "guide": "B1 guide with T49C, C57G, G59A", "modifications": "listed as DNA, chemistry not fully specified"}, "B9": {"name": "cr237 (nucleic acid)", "guide": "B1 guide with C45A, G48T, G59A, T61G, A68C, G77C, C81G", "modifications": "listed as DNA, chemistry not fully specified"}, "B10": {"name": "cr331 (nucleic acid)", "guide": "B1 guide with T34C, G59A, C75T, G83A", "modifications": "listed as DNA, chemistry not fully specified"}, "B11": {"name": "cr002 (nucleic acid)", "guide": "B1 guide with G1C, G59A", "modifications": "listed as DNA, chemistry not fully specified"}, "B12": {"name": "cr417 (nucleic acid)", "guide": "B1 guide with G33T, G59A, A66G", "modifications": "listed as DNA, chemistry not fully specified"}, "B13": {"name": "cr591 (nucleic acid)", "guide": "B1 guide with A55G, A58T, G59A", "modifications": "listed as DNA, chemistry not fully specified"}, "B14": {"name": "cr466 (nucleic acid)", "guide": "B1 guide with T40A, G59A", "modifications": "listed as DNA, chemistry not fully specified"}, "B15": {"name": "cr154 (nucleic acid)", "guide": "B1 guide with A28C, G52A, G59A", "modifications": "listed as DNA, chemistry not fully specified"}, "B16": {"name": "cr344 (nucleic acid)", "guide": "B1 guide with G52A, G59A, A66T", "modifications": "listed as DNA, chemistry not fully specified"}, "B17": {"name": "cr709 (nucleic acid)", "guide": "B1 guide with C57T, G59A, G71T", "modifications": "listed as DNA, chemistry not fully specified"}, "B18": {"name": "cr468 (nucleic acid)", "guide": "B1 guide with T34A, G59A", "modifications": "listed as DNA, chemistry not fully specified"}, "B19": {"name": "cr982 (nucleic acid)", "guide": "B1 guide with T34C, G59A, C75A, G83T", "modifications": "listed as DNA, chemistry not fully specified"}, "B20": {"name": "cr586 (nucleic acid)", "guide": "B1 guide with T34C, G59A, A74C, T84G", "modifications": "listed as DNA, chemistry not fully specified"}, "B21": {"name": "cr069 (nucleic acid)", "guide": "B1 guide with T2C, G7A, G59A", "modifications": "listed as DNA, chemistry not fully specified"}, "B22": {"name": "cr004 (nucleic acid)", "guide": "B1 guide with T2A, G59A", "modifications": "listed as DNA, chemistry not fully specified"}, "B23": {"name": "cr210 (nucleic acid)", "guide": "B1 guide with A58T, G59A, A65C", "modifications": "listed as DNA, chemistry not fully specified"}, "B24": {"name": "cr146 (nucleic acid)", "guide": "B1 guide with G59A, C76G, G77C, C81G, G82C", "modifications": "listed as DNA, chemistry not fully specified"}, "B25": {"name": "cr027 (nucleic acid)", "guide": "B1 guide with T3C, G7A, G59A", "modifications": "listed as DNA, chemistry not fully specified"}, "B26": {"name": "cr897 (nucleic acid)", "guide": "B1 guide with A38T, G59A", "modifications": "listed as DNA, chemistry not fully specified"}, "B27": {"name": "cr173 (nucleic acid)", "guide": "B1 guide with G43A, C51T, G59A, C73T, C75G, G83C, G85A", "modifications": "listed as DNA, chemistry not fully specified"}, "B28": {"name": "cr850 (nucleic acid)", "guide": "B1 guide with G59A, A78G, T80G", "modifications": "listed as DNA, chemistry not fully specified"}, "B29": {"name": "cr182 (nucleic acid)", "guide": "B1 guide with G33T, G59A", "modifications": "listed as DNA, chemistry not fully specified"}, "B30": {"name": "cr351 (nucleic acid)", "guide": "B1 guide with A47C, C57A, G59A, G63A", "modifications": "listed as DNA, chemistry not fully specified"}, "B31": {"name": "cr634 (nucleic acid)", "guide": "B1 guide with A32G, A58G, G59A", "modifications": "listed as DNA, chemistry not fully specified"}, "B32": {"name": "cr006 (nucleic acid)", "guide": "B1 guide with T2G, G59A", "modifications": "listed as DNA, chemistry not fully specified"}, "B33": {"name": "cr573 (nucleic acid)", "guide": "B1 guide with A31T, T53A, G59A, G71C", "modifications": "listed as DNA, chemistry not fully specified"}, "B34": {"name": "cr074 (nucleic acid)", "guide": "B1 guide with A6T, A8C, G59A", "modifications": "listed as DNA, chemistry not fully specified"}, "B35": {"name": "cr349 (nucleic acid)", "guide": "B1 guide with G59A, C81T", "modifications": "listed as DNA, chemistry not fully specified"}, "B36": {"name": "cr689 (nucleic acid)", "guide": "B1 guide with T34C, A55T, G59A, A65T", "modifications": "listed as DNA, chemistry not fully specified"}, "B37": {"name": "cr014 (nucleic acid)", "guide": "B1 guide with A5C, G59A", "modifications": "listed as DNA, chemistry not fully specified"}, "B38": {"name": "cr889 (nucleic acid)", "guide": "B1 guide with G43A, C51T, G59A, G72T, C86A", "modifications": "listed as DNA, chemistry not fully specified"}, "B39": {"name": "cr051 (nucleic acid)", "guide": "B1 guide with G1T, G7C, G59A", "modifications": "listed as DNA, chemistry not fully specified"}, "B40": {"name": "cr242 (nucleic acid)", "guide": "B1 guide with C45G, G48C, G59A, C60G, G69C, G77T, C81A", "modifications": "listed as DNA, chemistry not fully specified"}, "B41": {"name": "cr064 (nucleic acid)", "guide": "B1 guide with A5T, G59A", "modifications": "listed as DNA, chemistry not fully specified"}},
  "note": "Changes are numbered by the printed parent chain.",
  "data": [
    {"test_system": "K562 CRISPRi cells", "test": "Constant region variant library pooled growth screen, K562", "type": "cell-based, human", "settings": "sgRNA constant region variants; activity relative to the original, un-modified constant region cr995", "how_it_was_run": "(§1)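 K562 CRISPRi, duplicate transductions; puromycin 1 d 0.75 μg/mL then 1 d 0.85 μg/mL; >2000× coverage in spinner flasks; harvests at 4-8 d growth. Activity = phenotype ÷ phenotype with unmodified constant region.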", "values": [
      {"molecule": "B1", "Mean relative activity": 1.041},
      {"molecule": "B2", "Mean relative activity": 1.041},
      {"molecule": "B3", "Mean relative activity": 1.041}
    ]},
    {"test_system": "K562 CRISPRi cells", "test": "Constant region variant library pooled growth screen, K562", "type": "cell-based, human", "settings": "sgRNA constant region variants; activity relative to the unmodified constant region cr995", "how_it_was_run": "as §1", "values": [
      {"molecule": "B4", "Mean relative activity": 0.2852},
      {"molecule": "B5", "Mean relative activity": 0.2959},
      {"molecule": "B6", "Mean relative activity": 0.3045},
      {"molecule": "B7", "Mean relative activity": 0.3221},
      {"molecule": "B8", "Mean relative activity": 0.3033},
      {"molecule": "B9", "Mean relative activity": 0.2843},
      {"molecule": "B10", "Mean relative activity": 0.2828},
      {"molecule": "B11", "Mean relative activity": 0.3195},
      {"molecule": "B12", "Mean relative activity": 0.2821},
      {"molecule": "B13", "Mean relative activity": 0.2933},
      {"molecule": "B14", "Mean relative activity": 0.3153},
      {"molecule": "B15", "Mean relative activity": 0.2827},
      {"molecule": "B16", "Mean relative activity": 0.2836},
      {"molecule": "B17", "Mean relative activity": 0.3211},
      {"molecule": "B18", "Mean relative activity": 0.32},
      {"molecule": "B19", "Mean relative activity": 0.2842},
      {"molecule": "B20", "Mean relative activity": 0.2939},
      {"molecule": "B21", "Mean relative activity": 0.3244},
      {"molecule": "B22", "Mean relative activity": 0.3103},
      {"molecule": "B23", "Mean relative activity": 0.313},
      {"molecule": "B24", "Mean relative activity": 0.3141},
      {"molecule": "B25", "Mean relative activity": 0.2878},
      {"molecule": "B26", "Mean relative activity": 0.3233},
      {"molecule": "B27", "Mean relative activity": 0.3244},
      {"molecule": "B28", "Mean relative activity": 0.3225}
    ]},
    {"test_system": "K562 CRISPRi cells", "test": "Constant region variant library pooled growth screen, K562", "type": "cell-based, human", "settings": "sgRNA constant region variants; relative to the original, un-modified constant region cr995; CRISPRi", "how_it_was_run": "as §1", "values": [
      {"molecule": "B29", "Mean relative activity": 0.3559},
      {"molecule": "B30", "Mean relative activity": 0.3557},
      {"molecule": "B31", "Mean relative activity": 0.3508},
      {"molecule": "B32", "Mean relative activity": 0.3275},
      {"molecule": "B33", "Mean relative activity": 0.3297},
      {"molecule": "B34", "Mean relative activity": 0.341},
      {"molecule": "B35", "Mean relative activity": 0.3326},
      {"molecule": "B36", "Mean relative activity": 0.3547},
      {"molecule": "B37", "Mean relative activity": 0.3395},
      {"molecule": "B38", "Mean relative activity": 0.3347},
      {"molecule": "B39", "Mean relative activity": 0.3367},
      {"molecule": "B40", "Mean relative activity": 0.3244},
      {"molecule": "B41", "Mean relative activity": 0.3383}
    ]}
  ]
}
